Assay [1] concerns the target mouse DNGR-1 on B3Z-mDNGR-1-Syk reporter cells (mouse) (UniProt Q8BRU4).
Assay [2] deals with DNGR-1 on cDC1s (mouse (endogenous in MutuDC1940 cells and splenic cDC1s)) (UniProt Q8BRU4). The assay is described as follows: flow cytometry on cells; red fluorescent streptavidin beads, uncoated or coated with F-actin or F-actin and myosin II, with GFP-expressing MutuDC1940 cells for 2 hr at 37°C; with isotype control or anti-DNGR-1 antibody 1F6. For orientation: A flow cytometer gives signals particle by particle.

This is an account of results in PMC6057488.

Regarding “F-actin and myosin II complexes (from UniProt P68135 1-377; Q28641 1-1938; P02602 1-192; P02608 1-170)”, the NFAT β-galactosidase reporter activity of B3Z-mDNGR-1-Syk cells, titration of an equimolar mixture of F-actin and myosin II against F-actin alone in assay [1] is 2 log.

“beads coated with biotinylated F-actin and myosin II (from UniProt P68135 1-377; Q28641 1-1938; P02602 1-192; P02608 1-170) (complex)” gave a percent of MutuDCs associated with beads in assay [2] of under 50%.

Take “in vitro polymerized F-actin (from UniProt P68135 1-377) (natural protein)”: in assay [1], the NFAT β-galactosidase reporter activity of B3Z-mDNGR-1-Syk cells, titration of in vitro polymerized F-actin was over 1 µM.
